# Measured values published in publication PMC10397247.
# Where two headings read alike, the source gives them in different places.
# T1: 4H496-bA
# T1 chain: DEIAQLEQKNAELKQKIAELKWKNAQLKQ
# T2: 4H4038-AA
# T2 chain: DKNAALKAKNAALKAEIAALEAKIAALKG
# T3: 4H43-AA
# T3 chain: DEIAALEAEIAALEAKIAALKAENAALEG
# T4: O11-AA
# T4 chain: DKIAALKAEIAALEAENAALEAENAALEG
# T5: 4H384-AA
# T5 chain: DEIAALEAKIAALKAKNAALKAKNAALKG
# T6: O13-AA
# T6 chain: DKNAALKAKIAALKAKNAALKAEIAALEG
# T7: 4H3905-AA
# T7 chain: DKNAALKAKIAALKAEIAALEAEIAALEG
# T8: 4H3590-AA
# T8 chain: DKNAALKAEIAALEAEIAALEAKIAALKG
# T9: 4H3625-AA
# T9 chain: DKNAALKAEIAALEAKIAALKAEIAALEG
# T10: O14-AA
# T10 chain: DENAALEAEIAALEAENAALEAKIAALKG
# T11: 4H_BCR
# T11 chain: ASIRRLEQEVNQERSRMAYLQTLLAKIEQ
# T12: 4H3049-AA
# T12 chain: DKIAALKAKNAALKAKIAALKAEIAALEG
# T13: 4H510-AA
# T13 chain: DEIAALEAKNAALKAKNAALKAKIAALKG
# T14: 4H451-AA
# T14 chain: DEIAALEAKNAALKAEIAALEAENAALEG
# T15: 4H2736-AA
# T15 chain: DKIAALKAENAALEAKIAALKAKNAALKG
# T16: 4H3587-AA
# T16 chain: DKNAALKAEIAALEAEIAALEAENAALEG
# T17: 4H_APH
# T17 chain: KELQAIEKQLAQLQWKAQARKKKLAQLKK
# T18: 4H2888-AA
# T18 chain: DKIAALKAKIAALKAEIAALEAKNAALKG
# T19: 4H337-AA
# T19 chain: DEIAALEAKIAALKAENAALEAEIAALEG
# T20: 4H730-bA
# T20 chain: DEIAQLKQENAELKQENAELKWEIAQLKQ
# T21: 4H949-bA
# T21 chain: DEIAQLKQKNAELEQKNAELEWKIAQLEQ
# T22: 4H349-bA
# T22 chain: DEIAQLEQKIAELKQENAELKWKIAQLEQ
# T23: 4H796-bA
# T23 chain: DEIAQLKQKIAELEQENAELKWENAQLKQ
# T24: O15-bP
# T24 chain: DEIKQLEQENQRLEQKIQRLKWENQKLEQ
# T25: 4H932-bA
# T25 chain: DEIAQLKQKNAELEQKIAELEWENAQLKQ
# T26: 4H56-bA
# T26 chain: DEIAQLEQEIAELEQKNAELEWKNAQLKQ
# T27: 4H2758-AA
# T27 chain: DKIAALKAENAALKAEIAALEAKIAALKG
# T28: 4H3409-AA
# T28 chain: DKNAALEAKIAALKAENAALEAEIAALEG
# T29: 4H2873-AA
# T29 chain: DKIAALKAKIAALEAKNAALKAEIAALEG
# T30: 4H775-AA
# T30 chain: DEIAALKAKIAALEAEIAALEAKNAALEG
# T31: 4H87-AA
# T31 chain: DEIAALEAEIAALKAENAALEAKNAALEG
# T32: 4H278-AA
# T32 chain: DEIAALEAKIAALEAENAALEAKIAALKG
# T33: 4H2985-AA
# T33 chain: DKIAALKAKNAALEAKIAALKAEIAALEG
# T34: 4H390-AA
# T34 chain: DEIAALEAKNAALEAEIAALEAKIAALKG
# T35: 4H3134-AA
# T35 chain: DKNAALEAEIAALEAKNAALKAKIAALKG
# T36: 4H3940-AA
# T36 chain: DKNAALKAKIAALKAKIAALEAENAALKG
# T37: 4H816-AA
# T37 chain: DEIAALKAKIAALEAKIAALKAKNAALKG
# T38: 4H2705-AA
# T38 chain: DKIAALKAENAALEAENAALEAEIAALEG
# T39: P8A-bS
# T39 chain: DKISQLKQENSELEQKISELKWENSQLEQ
# T40: P9A-bS
# T40 chain: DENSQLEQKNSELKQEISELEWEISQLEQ
# T41: P6A-bS
# T41 chain: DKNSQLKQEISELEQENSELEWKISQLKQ
# T42: P7A-bS
# T42 chain: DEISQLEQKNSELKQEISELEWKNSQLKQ
# T43: 4H3961-bH
# T43 chain: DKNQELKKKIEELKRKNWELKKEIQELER
# T44: 4H470-bH
# T44 chain: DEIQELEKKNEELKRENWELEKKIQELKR
# What was measured:
# 4H496-bA = biological target: T1, 4H496-bA; assay: two-hybrid library CCNG1;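 further: natural log of median RNA to DNA barcode read ratio; higher means stronger binding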
# 4H4038-AA = biological target: T2, 4H4038-AA; assay: two-hybrid library CCmax; conditions: mean of both orientations;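 further: natural log of median RNA to DNA barcode read ratio; higher means stronger binding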
# 4H43-AA = biological target: T3, 4H43-AA; assay: two-hybrid library CCmax;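 further: natural log of median RNA to DNA barcode read ratio; higher means stronger binding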
# O11-AA = biological target: T4, O11-AA; assay: two-hybrid library CCmax; conditions: mean of both orientations;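 further: natural log of median RNA to DNA barcode read ratio; higher means stronger binding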
# 4H384-AA = biological target: T5, 4H384-AA; assay: two-hybrid library CCmax; conditions: mean of both orientations
# O13-AA = biological target: T6, O13-AA; assay: two-hybrid library CCmax; conditions: mean of both orientations
# 4H3905-AA = biological target: T7, 4H3905-AA; assay: two-hybrid library CCmax; conditions: mean of both orientations
# 4H3590-AA = biological target: T8, 4H3590-AA; assay: two-hybrid library CCmax; conditions: mean of both orientations
# 4H3625-AA = biological target: T9, 4H3625-AA; assay: two-hybrid library CCmax; conditions: mean of both orientations
# O14-AA = biological target: T10, O14-AA; assay: two-hybrid library CCmax; conditions: mean of both orientations
# 4H_BCR = biological target: T11, 4H_BCR; assay: two-hybrid library CCmax; conditions: mean of both orientations
# 4H3049-AA = biological target: T12, 4H3049-AA; assay: two-hybrid library CCmax; conditions: mean of both orientations
# 4H510-AA = biological target: T13, 4H510-AA; assay: two-hybrid library CCmax; conditions: mean of both orientations
# 4H_GCN4 = assay: two-hybrid library CCmax; conditions: mean of both orientations
# Chain of 4H_GCN4 (chain, as listed by the source): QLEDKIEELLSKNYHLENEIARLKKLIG
# 4H451-AA = biological target: T14, 4H451-AA; assay: two-hybrid library CCmax; conditions: mean of both orientations
# GCN2_T = assay: two-hybrid library CCmax
# 4H2736-AA = biological target: T15, 4H2736-AA; assay: two-hybrid library CCmax
# 4H3587-AA = biological target: T16, 4H3587-AA; assay: two-hybrid library CCmax; conditions: mean of both orientations
# 4H_APH = biological target: T17, 4H_APH; assay: two-hybrid library CCmax; conditions: mean of both orientations
# 4H2888-AA = biological target: T18, 4H2888-AA; assay: two-hybrid library CCmax; conditions: mean of both orientations
# 4H337-AA = biological target: T19, 4H337-AA; assay: two-hybrid library CCmax; conditions: mean of both orientations
# 4H730-bA = biological target: T20, 4H730-bA; assay: two-hybrid library CCNG1
# 4H949-bA = biological target: T21, 4H949-bA; assay: two-hybrid library CCNG1
# 4H349-bA = biological target: T22, 4H349-bA; assay: two-hybrid library CCNG1
# 4H796-bA = biological target: T23, 4H796-bA; assay: two-hybrid library CCNG1
# O15-bP = biological target: T24, O15-bP; assay: two-hybrid library CCNG1
# 4H932-bA = biological target: T25, 4H932-bA; assay: two-hybrid library CCNG1
# 4H56-bA = biological target: T26, 4H56-bA; assay: two-hybrid library CCNG1
# 4H2758-AA = biological target: T27, 4H2758-AA; assay: two-hybrid library CCmax; conditions: mean of both orientations
# 4H3409-AA = biological target: T28, 4H3409-AA; assay: two-hybrid library CCmax; conditions: mean of both orientations
# 4H2873-AA = biological target: T29, 4H2873-AA; assay: two-hybrid library CCmax; conditions: mean of both orientations
# 4H775-AA = biological target: T30, 4H775-AA; assay: two-hybrid library CCmax; conditions: mean of both orientations
# 4H87-AA = biological target: T31, 4H87-AA; assay: two-hybrid library CCmax; conditions: mean of both orientations
# 4H278-AA = biological target: T32, 4H278-AA; assay: two-hybrid library CCmax; conditions: mean of both orientations
# 4H2985-AA = biological target: T33, 4H2985-AA; assay: two-hybrid library CCmax
# 4H390-AA = biological target: T34, 4H390-AA; assay: two-hybrid library CCmax; conditions: mean of both orientations
# 4H3134-AA = biological target: T35, 4H3134-AA; assay: two-hybrid library CCmax; conditions: mean of both orientations
# 4H3940-AA = biological target: T36, 4H3940-AA; assay: two-hybrid library CCmax; conditions: mean of both orientations
# 4H816-AA = biological target: T37, 4H816-AA; assay: two-hybrid library CCmax; conditions: mean of both orientations
# 4H2705-AA = biological target: T38, 4H2705-AA; assay: two-hybrid library CCmax
# P8A-bS = biological target: T39, P8A-bS; assay: two-hybrid library CCNG1
# P9A-bS = biological target: T40, P9A-bS; assay: two-hybrid library CCNG1
# P6A-bS = biological target: T41, P6A-bS; assay: two-hybrid library CCNG1
# P7A-bS = biological target: T42, P7A-bS; assay: two-hybrid library CCNG1
# 4H3961-bH = biological target: T43, 4H3961-bH; assay: two-hybrid library CCNG1; conditions: mean of both orientations
# 4H470-bH = biological target: T44, 4H470-bH; assay: two-hybrid library CCNG1
Binder,interaction score (4H4038-AA),interaction score (O11-AA),interaction score (4H384-AA),interaction score (O13-AA),interaction score (4H3905-AA),interaction score (4H3590-AA),interaction score (4H3625-AA),interaction score (O14-AA),interaction score (4H_BCR),interaction score (4H3049-AA),interaction score (4H510-AA),interaction score (4H_GCN4),interaction score (4H451-AA),interaction score (4H3587-AA),interaction score (4H_APH),interaction score (4H2888-AA),interaction score (4H337-AA),also measured
DEIAQLEQKNAELKQKIAELKWKNAQLKQ [4H496-bA],,,,,,,,,,,,,,,,,,interaction score (4H496-bA): -0.521
DEIAQLEQKIAELKQENAELKWKIAQLEQ [4H349-bA],,,,,,,,,,,,,,,,,,interaction score (4H730-bA): -0.854; interaction score (4H949-bA): -1.01; interaction score (4H349-bA): 0.649; interaction score (4H796-bA): -0.458; interaction score (O15-bP): 0.584; interaction score (4H932-bA): -0.919; interaction score (4H56-bA): -0.982
DKNSQLKQEISELEQENSELEWKISQLKQ [P6A-bS],,,,,,,,,,,,,,,,,,interaction score (P8A-bS): 0.0461; interaction score (P9A-bS): -0.77; interaction score (P6A-bS): -2.31; interaction score (P7A-bS): 1.24
DKNQELKKKIEELKRKNWELKKEIQELER [4H3961-bH],,,,,,,,,,,,,,,,,,interaction score (4H3961-bH): -1.2; interaction score (4H470-bH): 1.3

# Continued, in another order:
interaction score (4H4038-AA),interaction score (O11-AA),interaction score (4H384-AA),interaction score (O13-AA),interaction score (4H3905-AA),interaction score (4H3590-AA),interaction score (4H3625-AA),interaction score (O14-AA),interaction score (4H_BCR),interaction score (4H3049-AA),interaction score (4H510-AA),interaction score (4H_GCN4),interaction score (4H451-AA),interaction score (4H3587-AA),interaction score (4H_APH),interaction score (4H2888-AA),interaction score (4H337-AA),Binder,also measured
-0.154,-0.615,-1.67,0.351,-1.18,-0.712,0.218,-0.38,-1.69,0.275,-1.15,-2.46,0.882,-1.26,-1.33,-0.685,-0.315,DKIAALKAENAALEAKIAALKAKNAALKG [4H2736-AA],interaction score (4H43-AA): -0.422; interaction score (GCN2_T): -0.66; interaction score (4H2736-AA): -1.62
0.153,-1.81,1.45,-1.17,-1.49,-1.6,-2.01,-1.68,-1.75,1.67,1.88,-1.71,-1.84,-1.78,-1.6,-1.97,-0.896,DKIAALKAENAALEAENAALEAEIAALEG [4H2705-AA],interaction score (4H2758-AA): -1.01; interaction score (4H3409-AA): -1.62; interaction score (4H2873-AA): -1.27; interaction score (4H43-AA; mean of both orientations): -1.82; interaction score (4H775-AA): -1.89; interaction score (4H87-AA): -1.62; interaction score (4H278-AA): -0.473; interaction score (4H2985-AA): -0.31; interaction score (4H390-AA): -0.544; interaction score (4H3134-AA): -0.0637; interaction score (GCN2_T; mean of both orientations): -1.4; interaction score (4H2736-AA; mean of both orientations): -1.45; interaction score (4H3940-AA): -1.62; interaction score (4H816-AA): -1.52; interaction score (4H2705-AA): -1.4
